16 molecules from patent publication US20150376265A1 (Genentech, published 2015) can be followed below.

The target in assay [1] is T1, HCMV gH on virions of strain VR1814 (HCMV, UniProt P12824 24-743).
T1 sequence: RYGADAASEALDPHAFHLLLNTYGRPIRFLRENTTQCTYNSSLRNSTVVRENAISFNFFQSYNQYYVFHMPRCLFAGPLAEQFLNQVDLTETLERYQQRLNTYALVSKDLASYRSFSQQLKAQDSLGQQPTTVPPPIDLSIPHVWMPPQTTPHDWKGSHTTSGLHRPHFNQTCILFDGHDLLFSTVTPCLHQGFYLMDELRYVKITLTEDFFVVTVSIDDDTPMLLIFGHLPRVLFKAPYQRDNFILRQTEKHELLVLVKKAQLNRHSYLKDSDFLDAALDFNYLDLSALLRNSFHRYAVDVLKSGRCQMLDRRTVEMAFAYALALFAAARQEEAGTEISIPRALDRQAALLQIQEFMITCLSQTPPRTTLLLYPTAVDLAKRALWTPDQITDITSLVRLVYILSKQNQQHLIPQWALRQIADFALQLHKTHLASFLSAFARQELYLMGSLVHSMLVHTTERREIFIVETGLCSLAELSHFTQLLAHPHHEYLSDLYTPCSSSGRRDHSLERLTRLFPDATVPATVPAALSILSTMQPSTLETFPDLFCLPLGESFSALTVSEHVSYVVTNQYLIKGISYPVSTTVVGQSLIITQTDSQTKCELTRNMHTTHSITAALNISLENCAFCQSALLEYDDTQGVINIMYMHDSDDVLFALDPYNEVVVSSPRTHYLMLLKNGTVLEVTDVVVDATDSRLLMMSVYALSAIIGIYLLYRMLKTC
The experiment in a line: cell-based or functional assay.

Assay [2] deals with T1, HCMV gH on virions of strain VR1814. The experiment in a line: cell-based or functional assay. This is another data set of the same source.
Assay [3] has the same target. As to the kind of experiment: cell-based or functional assay. The source holds these as a separate data set.
Assay [4] concerns the target T2, soluble baculovirus-expressed gH/gL (HCMV, UniProt P12824 24-720; P16832 31-278).
T2 construct: also called gH/gL dimer produced in baculovirus; baculovirus expressed, secreted gH/gL
T2 sequence 1: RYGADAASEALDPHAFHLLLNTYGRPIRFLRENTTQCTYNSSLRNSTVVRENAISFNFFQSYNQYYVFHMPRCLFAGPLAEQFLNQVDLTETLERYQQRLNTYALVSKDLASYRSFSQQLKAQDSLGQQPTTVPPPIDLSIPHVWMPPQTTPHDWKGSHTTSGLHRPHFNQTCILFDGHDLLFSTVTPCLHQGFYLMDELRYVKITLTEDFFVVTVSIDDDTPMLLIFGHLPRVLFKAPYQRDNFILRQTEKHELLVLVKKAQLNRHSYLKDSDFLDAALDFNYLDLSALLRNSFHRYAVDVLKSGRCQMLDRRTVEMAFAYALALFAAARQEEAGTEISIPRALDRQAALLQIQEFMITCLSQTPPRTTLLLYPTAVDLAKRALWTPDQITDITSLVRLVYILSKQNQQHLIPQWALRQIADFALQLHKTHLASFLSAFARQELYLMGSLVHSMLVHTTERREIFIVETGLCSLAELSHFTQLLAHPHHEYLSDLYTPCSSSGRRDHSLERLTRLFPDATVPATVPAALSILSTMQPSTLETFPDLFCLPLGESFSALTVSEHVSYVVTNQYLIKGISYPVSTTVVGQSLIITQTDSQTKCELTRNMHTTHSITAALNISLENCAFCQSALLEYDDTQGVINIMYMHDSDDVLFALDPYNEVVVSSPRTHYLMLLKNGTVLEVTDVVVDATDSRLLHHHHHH
T2 sequence 2: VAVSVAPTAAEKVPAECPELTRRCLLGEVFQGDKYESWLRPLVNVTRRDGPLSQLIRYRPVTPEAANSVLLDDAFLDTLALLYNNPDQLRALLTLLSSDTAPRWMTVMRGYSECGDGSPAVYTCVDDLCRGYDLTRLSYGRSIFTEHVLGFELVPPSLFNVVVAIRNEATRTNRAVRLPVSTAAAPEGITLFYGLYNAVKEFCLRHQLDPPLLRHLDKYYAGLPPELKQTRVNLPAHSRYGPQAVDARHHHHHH
As to the kind of experiment: competition phage ELISA: phage-displayed Fab with serially diluted soluble gH/gL, free phage caught on coated gH/gL.

Assay [5] addresses T1, HCMV gH on virions of strain VR1814. The experiment in a line: cell-based or functional assay. This is another data set of the same source.
For assay [6] the target is unchanged. As to the kind of experiment: cell-based or functional assay. This is another data set of the same source.
Assay [7] shares this target. As to the kind of experiment: cell-based or functional assay. This is another data set of the same source.
Assay [8] shares this target. As to the kind of experiment: cell-based or functional assay. This is another data set of the same source.

Substitutions are numbered along the chain they refer to. In names and notes the source's numbering stands. Several values for one entry are separate records, joined by “and”; a condition that tells them apart may be missing. Identical values can stand only once. Like-named read-outs stand apart in the source and are kept apart here.

B1: MSL-109 (antibody, V domains shown)
VH: EEQVLESGGGLVKPGGSLRLSCAASGFTFSPYSVFWVRQAPGKGLEWVSSINSDSTYKYYADSVKGRFTISRDNAENSIFLQMNSLRAEDTAVYYCARDRSYYAFSSGSLSDYYYGLDVWGQGTLVTVSS
VL: DIVMTQSPLSLSVTPGEPASISCRSSQSLLHTNGYNYLDWYVQKPGQSPQLLIYLASNRASGVPDRFSGSGSGTDFTLKISRVETEDVGVYYCMQALQIPRTFGQGTKVEIK
Take B1: in assay [1], the “EC50, neutralisation of HCMV strain VR1814 on endothelial cells” value worked out at 0.0764 µg/mL; the “EC50, neutralisation of HCMV strain VR1814 on epithelial cells” value worked out at 0.164 µg/mL; the “EC50, neutralisation of HCMV strain VR1814 on fibroblasts” value was determined as 0.389 µg/mL. Further, in assay [2], the “Epithelial EC50 (first pair of columns), neutralisation” value came to 0.3 µg/mL; the “Epithelial EC50 (second pair of columns), neutralisation” value is 0.48 µg/mL; the “Fibroblast EC50, neutralisation” value turned out to be 0.73 µg/mL; the “MDM EC50, neutralisation” value is 0.04 µg/mL.

B2: MSL-109 Fab fragment (WT) (Fab, V domains shown)
VH: B1 VH
VL: B1 VL
In the case of B2, the “EC50, inhibition of HCMV entry into ARPE-19 cells, Fab fragments from E. coli” value in assay [3] stood at 6.2 nM.

B3: MSL-109 Fab variant H2-T55R (Fab, name in Kabat numbering, V domains shown)
VH: B1 VH with T56R
VL: B1 VL
As usually defined, the IC50 is the point on the concentration scale where inhibition reaches its midpoint. High values mean a need for much substance, low ones inhibition by little substance. B3 had an IC50 in assay [4] of 0.17 nM. This counts as sub-nanomolar.

B4: MSL-109 Fab variant H2-D53N (Fab, name in Kabat numbering, V domains shown)
VH: B1 VH with D54N
VL: B1 VL
B4 came in with an IC50 in assay [4] of 0.06 nM. This IC50 is about 2.8-fold lower than that of the molecule before.

B5: MSL-109 Fab variant H2-D53L (Fab, name in Kabat numbering, V domains shown)
VH: B1 VH with D54L
VL: B1 VL
Regarding B5, the concentration for half-maximal inhibition (IC50) in assay [4] is 0.02 nM.

B6: HB1 (D53N/T55R) (antibody, V domains shown)
VH: B1 VH with D54N, T56R
VL: B1 VL
For the molecule B6, in assay [3], the “EC50, block of viral entry into fibroblasts” value was 0.11 µg/ml and 0.7 nM. In assay [2], the “Epithelial EC50 (first pair of columns), neutralisation” value turned out to be 0.05 µg/mL; the “Epithelial EC50 (second pair of columns), neutralisation” value was determined as 0.03 µg/mL; the “Fibroblast EC50, neutralisation” value came out at 0.11 µg/mL; the “MDM EC50, neutralisation” value was 0.03 µg/mL. In addition, the “EC50 on epithelial cells, HB1 alone” value in assay [5] came out at 0.063 µl/ml. Besides, in assay [6], the “EC50 of HB1 in the presence of hu8G8 at .000128 µg/ml” value was determined as 0.041 µg/mL, the “EC50 of HB1 in the presence of hu8G8 at .00064 µg/ml” value turned out to be 0.043 µg/mL, the “EC50 of HB1 in the presence of hu8G8 at .0032 µg/ml” value turned out to be 0.035 µg/mL and the “EC50 of HB1 with hu8G8 at 0 µg/ml” value was 0.03 µg/mL. The “HB1 EC50, neutralisation of the No Ab control virus” value in assay [7] stood at 0.04 µg/mL. In addition, in assay [8], the “HB1 EC50, neutralisation of hu8G8 - mutant virus 1 (UL131 Q47K, gH unchanged)” value was determined as 0.18 µg/mL; the “HB1 EC50, neutralisation of hu8G8 - mutant virus 2 (UL131 K51E, gH unchanged)” value was 0.07 µg/mL; the “HB1 EC50, neutralisation of hu8G8 - mutant virus 3 (UL131 D46N, gH unchanged)” value worked out at 0.06 µg/mL; the “HB1 EC50, neutralisation of the No Ab control virus” value came out at 0.22 µg/mL.

B7: MSL-109 Fab variant H2-D53M/T55R (Fab, name in Kabat numbering, V domains shown)
VH: B1 VH with D54M, T56R
VL: B1 VL
In assay [4], B7 registered an IC50 of 0.07 nM. This counts as picomolar.

B8: MSL-109 Fab variant H2-D53T (Fab, name in Kabat numbering, V domains shown)
VH: B1 VH with D54T
VL: B1 VL
B8 yielded an IC50 in assay [4] of 0.06 nM.

B9: MSL-109 Fab variant H2-D53S (Fab, name in Kabat numbering, V domains shown)
VH: B1 VH with D54S
VL: B1 VL
Take B9: in assay [4], the IC50 came out at 0.1 nM.

B10: MSL-109 Fab variant H2-D53L/T55R (Fab, name in Kabat numbering, V domains shown)
VH: B1 VH with D54L, T56R
VL: B1 VL
B10 came in with a concentration for half-maximal inhibition (IC50) in assay [4] of 0.02 nM.

B11: HB2 Fab fragment, H2-D53Q/T55R (HB2) (Fab, name in Kabat numbering, V domains shown)
VH: B1 VH with D54Q, T56R
VL: B1 VL
In assay [4], B11 had a half-inhibitory concentration (IC50) of 0.01 nM.

B12: MSL-109 Fab variant H2-D53S/T55R (Fab, name in Kabat numbering, V domains shown)
VH: B1 VH with D54S, T56R
VL: B1 VL
Molecule B12 yielded an IC50 in assay [4] of 0.03 nM.

B13: MSL-109 Fab variant H2-D53F/T55R (Fab, name in Kabat numbering, V domains shown)
VH: B1 VH with D54F, T56R
VL: B1 VL
In assay [4], B13 registered an IC50 of 0.01 nM.

B14: MSL-109 Fab variant H2-D53M (Fab, name in Kabat numbering, V domains shown)
VH: B1 VH with D54M
VL: B1 VL
On to B14, for which the IC50 in assay [4] is 0.05 nM.

B15: MSL-109 Fab variant H2-D53T/T55R (Fab, name in Kabat numbering, V domains shown)
VH: B1 VH with D54T, T56R
VL: B1 VL
B15: the IC50 in assay [4] came out at 0.03 nM.

B16: HB1 Fab fragment, H2-D53N/T55R (HB1) (Fab, V domains shown)
VH: B1 VH with D54N, T56R
VL: B1 VL
With B16, the “EC50, inhibition of HCMV entry into ARPE-19 cells, Fab fragments from E. coli” value in assay [3] amounted to 0.15 nM.
